5 variants from FireProtDB (doi:10.1016/j.jmb.2003.11.050) can be followed below.

Sequences and labels used below:
B1: Cold shock protein CspB, P41016 (parent)
chain: MQRGKVKWFNNEKGYGFIEVEGGSDVFVHFTAIQGEGFKTLEEGQEVSFEIVQGNRGPQAANVVKL

“And” between values parts separate entries of the source, which are not always exact repeats. Equal values may be shown once.

The variants in the data set derive from B1. Particulars: Bacillus caldolyticus; pH 7; 25 °C; GdnHCl; Fluorescence; sodium cacodylate 100 mM; reversible: yes; structure 1C9O; whole UniProt chain shown.

Take E50W L66C: the “ddG of mutation (higher = less stable)” value was 1.7 kcal/mol and 4.4 kcal/mol; the denaturant m value is 1.97 kcal/mol/M and 1.54 kcal/mol/M; the “denaturant midpoint (higher = more stable)” value (“denaturant midpoint” below) is 1.64 M and 1.68 M; the unfolding free energy was 3.23 kcal/mol and 2.58 kcal/mol.

Take E50W S24C: the “ddG of mutation (higher = less stable)” value was 0.8 kcal/mol and 0.3 kcal/mol; the denaturant m value is 1.64 kcal/mol/M and 1.43 kcal/mol/M; the “denaturant midpoint” value was 2.09 M and 2.05 M; the unfolding free energy is 3.44 kcal/mol and 2.92 kcal/mol.

On to F38W L66C, for which the denaturant m value is 1.97 kcal/mol/M and 1.9 kcal/mol/M and 1.54 kcal/mol/M; the “denaturant midpoint” value was 2.14 M and 2.11 M and 1.83 M; the unfolding free energy was 4.21 kcal/mol and 4.02 kcal/mol and 2.82 kcal/mol.

Take F38W: the “ddG of mutation (higher = less stable)” value was -0.7 kcal/mol, the denaturant m value stood at 1.75 kcal/mol/M, the “denaturant midpoint” value is 2.18 M and the unfolding free energy is 3.8 kcal/mol.

On to E50W, for which the “ddG of mutation (higher = less stable)” value was -0.3 kcal/mol, the denaturant m value was found to be 1.69 kcal/mol/M, the “denaturant midpoint” value stood at 2.18 M and the unfolding free energy came out at 3.7 kcal/mol.
